Source: US20240382586A1 (TAKIS S R L, published 2024)
Positions count from the first letter of the chain named. Read-outs that look alike come from different tables or passages of the source.

What was measured:
[1] = target: T1, SARS-CoV-2 spike receptor-binding domain, wild type (RBD-6×His) (SARS-CoV-2, UniProt P0DTC2 319-541)
[2] = target: T1, SARS-CoV-2 spike receptor-binding …; remark: listed apart in the source
[3] = target: T1, SARS-CoV-2 spike receptor-binding …; remark: listed apart in the source
[4] = target: T1, SARS-CoV-2 spike receptor-binding …; remark: listed apart in the source
[5] = target: RBD fragment of the SARS-CoV-2 spike protein (RBD WT), recombinant (SARS-CoV-2, UniProt P0DTC2 319-541); assay: SPR Carterra LSA
[6] = target: T2, SARS-CoV-2 spike receptor-binding domain (RBD), recombinant (SARS-CoV-2, UniProt P0DTC2 319-541); assay: ELISA on RBD
[7] = target: T2, SARS-CoV-2 spike receptor-binding …; assay: SPR, Carterra LSA
[8] = target: T1, SARS-CoV-2 spike receptor-binding …; assay: ELISA, coated RBD-6His
[9] = target: T3, full-length spike protein (coated in ELISA) (SARS-CoV-2, UniProt P0DTC2 16-1213)
[10] = target: T1, SARS-CoV-2 spike receptor-binding …; remark: listed apart in the source
[11] = target: T1, SARS-CoV-2 spike receptor-binding …; remark: listed apart in the source
[12] = target: T3, full-length spike protein (coated in …); remark: listed apart in the source
[13] = target: RBD-6×His protein, RBD WT of the SARS-CoV-2 spike protein (SARS-CoV-2, UniProt P0DTC2 319-541); assay: ELISA on recombinant RBD
[14] = target: SARS-CoV-2 spike receptor-binding domain (RBD), recombinant (SARS-CoV-2, UniProt P0DTC2 319-541); assay: SPR, Carterra LSA; remark: listed apart in the source

B1: VH1/VL1 (antibody, V domains shown)
VH: EVQLQQSGAELVKPGASVKLSCTASGFNIKETYVHWVKQRPEQGLEWIGRIDPAIGDSEYDPKFQGKATVTADTSSNTAYLQLSRLTSEDTAVYYCARTWGPFFDFWGQGTTLTVSS
VL: DVVMTQTPLSLPVSLGDQASISCRSSQSLVHSHGNTFLHWYLQKPGQSPKVLIYKVSSRFSGVPDRFSGSGAGTDFTLKISRVEAEDLGVYFCSQSTHVPYTFGGGTKLEIK
notes: also called chimeric antibody 9-8F2-B11, combination VH1/VL1
[1]
  EC50 (read off the curve): ~0.1 µg/mL

B2: humanised 9-8F2-B11 (VH3VL3) (antibody, V domains shown)
VH: QVQLVQSGAEVKKPGASVKVSCKASGFNIKETYVHWVRQAPGQGLEWMGRIDPAIGDSEYAQKFQGRVTMTRDTSISTAYMELSRLRSDDTAVYYCARTWGPFFDFWGQGTLVTVSS
VL: DIVMTQTPLSLSVTPGQPASISCKSSQSLLHSHGNTFLHWYLQKPGQSPQVLIYKVSSRFSGVPDRFSGSGSGTDFTLKISRVEAEDVGVYYCSQSTHVPYTFGQGTKLEIK
notes: also called 9-8F2-B11 humanised
[2]
  Kd: 2.26 nM
[3]
  EC50 (read off the curve): ~0.01 µg/mL

B3: 9-2H7-D7 chimera (antibody, V domains shown)
VH: EVQLQQSGPELVKPGASVTISCKTSGYTFTEYTMYWVKQSHGKSLEWIGGINPYIGDTSYNQNFKGKATLTVDKSSSTAYMELRSLTSEDSAVYYCARDGYPDYSAMDFWGQGTSVTVSS
VL: DIVMSQSPSSLAVSVGEKVTMNCKSSQNLLYSSNQKNYLAWYQQKPGQSPKLLIYWASTRESGVPDRFTGSGSGTDFTLTISSVKAEDLAVYSCQQYYTYPWTFGGGTKLEIK
[4]
  EC50 (read off the curve): ~0.05 µg/mL

B4: 9-2H7 (antibody, V domains shown)
VH: B3 VH
VL: B3 VL
[5]
  Kd: 0.00977 nM

B5: 9-7A4 (antibody, V domains shown)
VH: EVQLQQSGPELVKPGASVKISCKTSGYTFTEYTMYWVKQSHGKSLEWIGGINPNNGDSSYIQKFKGKATLTVDESSSTAYMELRSLTSEDSAVYYCARDGYPNSYAMDYWGQGTSVTVSS
VL: B3 VL with E17D, N22S, N28S, S33T, S82G, K85R, A86P, S93Y, T99S
[5]
  Kd: 0.735 nM

B6: 2-4G1 (antibody, V domains shown)
VH: EVQLVQSGAEVKRPGASVKVSCKASGYTFTSYGLSWVRQAPGQGLEWMGWINTYNGHTNYAQKVQGRVTLTTDTSTSTAYMELRSLRSDDTAVYYCARVESVYYGSGTCDPWGQGTLVTVSS
VL: DIQMTQSPSSLSASVGDRVTITCRASQSISSYLNWYQQKPGKAPKLLIYIASSLQSGVPSRFSGSGSGTDFTLTISSLQPEDFATYYCHQSYSSPHTFGQGTKLEIK
[6]
  A(405 nm): 2.08
[7]
  Kd: 14.4 nM

B7: 9-7A4-C2 (mouse) (antibody, V domains shown)
VH: B5 VH
VL: B3 VL with E17D, N22S, N28S, S33T, S82G, K85R, A86P, S93Y, T99S
[8]
  IC50: 0.0133 µg/mL
[9]
  IC50: 0.0027 µg/mL
[10]
  Kd: 0.643 nM

B8: 9-8F2-B11 (mouse) (antibody, V domains shown)
VH: B1 VH
VL: B1 VL
[8]
  IC50: 0.0137 µg/mL
[9]
  IC50: 0.0037 µg/mL
[10]
  Kd: 0.913 nM

B9: 9-2H7-D7 (mouse) (antibody, V domains shown)
VH: B3 VH
VL: B3 VL
[11]
  Kd: 0.0515 nM
[12]
  IC50: 0.0046 µg/mL
[8]
  IC50: 0.0269 µg/mL

B10: 2-5C4 (antibody, V domains shown)
VH: EVQLVESGGGLIQPGGSLRLSCAASGLTVSSNYMNWVRQAPGKGLEWVSVIYAGGSTFYADSVKGRFTISRDNSKNTLYLQMNSLRAEDTAFYYCARESYGMDVWGQGTTVTVSS
VL: EIVLTQSPATLSLSPGERATLSCRASQSISSSYLAWYQQKPGQAPRLLIYGASSRATGIPDRFSGSGSGTDFTLTISRLEPEDFAVYYCQQYGSLYTFGQGTKVEIK
[6]
  A(405 nm): 2.26
[7]
  Kd: 0.026 nM

B11: 2-5D9 (antibody, V domains shown)
VH: QVQLQESGPGLVKPSETLSLTCTVSGGSISSYYWSWIRQPPGKGLEWIGYIYYTGSTNYNPSLKSRVTISVDTSKNQFSLKLRSVTAADTAVYYCAGTYDSNLLDPWGQGTLVTVSS
VL: DIQMTQSPSSLSASVGDRVTITCRASQGISNSLAWYQQKPGKAPKLLLYDVFRFESGVPSRFSGSGSGTDYTLTISSLQPDDFATYYCQQYYSTPYTFGQGTKVEIK
[6]
  A(405 nm): 3.49
[7]
  Kd: 0.544 nM

B12: 2-5F8 (antibody, V domains shown)
VH: QVQLVQSGAEVKKPGASVKVSCKASGYTFTNYYMHWVRQAPGQGLEWMGVINPSGASTSYAQKFQGRVTMTRDTSTSTVYMELSSLRSEDTAVYYCASWGGNIPLYYYYGMDVWGQGTTVTVSS
VL: QSALTQPPSASGSPGQSVTISCTGTSSDVGGYNYVSWYQQHPGKAPKLMIYEVSKRPSGVPDRFSGSKAGNTASLTVSGLQAEDEADYYCTSYAGSNIWVFGGGTKLTVL
[6]
  A(405 nm): 3.48
[7]
  Kd: 1.5 nM

B13: humanised antibody 9-2H7-D7 (antibody, V domains shown)
VH: QVQLQQSGAEVKKPGASVKISCKTSGYTFTEYTMYWVKQSHGKSLEWMGGINPYIGDTSYNQNFKGRVTMTRDKSTSTAYMELSSLTSEDSAVYYCARDGYPDYSAMDFWGQGTSVTVSS
VL: B3 VL with S5T, K18R, M21I, Q35N, T69S, K85Q, L89V
notes: also called humanised 9-2H7-D7
[13]
  binding result: binds

B14: 3-12B12 (antibody, V domains shown)
VH: EVQLQQSGAELVRPGALVKLSCKASGFNIKDYYMHWVKQRPEQGLEWIGWIDPENGNSIYDPKFQGKASITADTSFNTVNLHLSSLTSEDTAVYYCAPYYYDSTYVGTMDYWGQGTSVTVSS
VL: QIVLTQSPAIMSASPGEKVTMTCSASSSVGYMYWYQQKPGSSPRLLIYDTSNLASGVPVRFGGSGSGTSYSLTISRMEAEDAATYYCQQWSSYPPRTFGGGTKLEIK
[14]
  Kd: 0.0165 nM

B15: humanised antibody 9-7A4-C2 (antibody, V domains shown)
VH: EVQLQQSGAEVKKPGASVKVSCKTSGYTFTEYTMYWVRQAPGQRLEWMGGINPNNGDSSYIQKFQGRVTITRDTSASTAYMELSSLRSEDTAVYYCARDGYPNSYAMDYWGQGTLVTVSS
VL: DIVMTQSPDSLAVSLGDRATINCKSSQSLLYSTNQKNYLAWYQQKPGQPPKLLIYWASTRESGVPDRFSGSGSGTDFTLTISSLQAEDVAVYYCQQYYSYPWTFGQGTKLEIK
notes: also called humanised 9-7A4-C2
[13]
  binding result: binds
